In the supplement of paper PMC12764529:

Assay: folding stability dG unfold (combined trypsin and chymotrypsin); higher = more stable
Method: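 Folding stability of de novo designed mini-proteins (<80 aa, no Cys; designed by TrROS, TrMRF, ProteinMPNN and the joint model) was measured by cDNA display proteolysis with trypsin and chymotrypsin. Each protease was used at 11 concentrations in a threefold dilution series plus a no-protease condition. K50 was inferred by Bayesian fitting of sequencing counts, and dG unfold was derived against a sequence-predicted unfolded-state K50 (Tsuboyama et al. method). Sequences shown include variable-length N-terminal GS-type padding (SAGGSAGG...) inside a display construct carrying a PA tag. Rows were kept only if the AF2 dimer inter-PAE was >15, to exclude likely homo-oligomers.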

| Sequence | folding stability dG unfold |
| --- | --- |
| SAGGSAGGSAGDNGKPEVKPVRIPIFIPGPKEQAKRIANYLYGFGMPIDVEVFDPDGKPISAGGSAGGSAGG [r11_703_TrROS] | < -4.18 kJ/mol |
| SAGGSAGGSAGEITIRMPMPDPDGGRRRIQFTIEKIKLPPGQKIKIVSVGPNGSFTIKPKSAGGSAGGSAGG [r11_733_TrROS] | < -4.18 kJ/mol |
| SAGGSAGGSAGEPVKIPITIKMRDNGKPREQPFKVEVEPNPDGNTQHKLNMPEGNITEIESAGGSAGGSAGG [r11_816_TrROS] | < -4.18 kJ/mol |
| SAGGSAGGSAGGEIKVRIDEYDPPSGFFRIEPPDGRTRQIPVPPGMNPEDLKGDTVTLKPSAGGSAGGSAGG [r7_296_TrROS] | < -4.18 kJ/mol |
| SAGGSAGGSAGGELVLPELNKPLNVEKEEVVVEGGEEVVKIKATGSGKPFEYVVPKGLGSAGGSAGGSAGGS [r10_517_JUSTAS] | < -4.18 kJ/mol |
| SAGGSAGGSAGGGKVKSIELNPETDLALVEIEPEDGGTATVVLPLDLLENIPLDGTLTISAGGSAGGSAGGS [r10_255_TrMRF] | < -4.18 kJ/mol |
| SAGGSAGGSAGGGPDWVLRRRTLEESSPVSTTPNPTGRRRTGYRTLVREEEVVLPPDLESAGGSAGGSAGGS [r10_524_JUSTAS] | < -4.18 kJ/mol |
| SAGGSAGGSAGGGSVHMPPLINWQEEEFEYESEEPVHIKRLVYKHPYSNEVEEEIEILLSAGGSAGGSAGGS [r10_881_JUSTAS] | < -4.18 kJ/mol |
| SAGGSAGGSAGGGSVTESPSYVVTRSADPAGPALYTVTDLSTGVPSSSTVAPDAPAVVPPSAGGSAGGSAGG [r7_177_JUSTAS] | < -4.18 kJ/mol |
| SAGGSAGGSAGGIKPGDKVRIMQMDKNGEMRGPVEIDNVEDGKITIKLPPPYRIMIQPYSAGGSAGGSAGGS [r10_1257_TrROS] | < -4.18 kJ/mol |
| SAGGSAGGSAGGIYIPMDDLKKNGMSIEQFADKLGHPVEIEVERNEPGSPVFKIEPDAKSAGGSAGGSAGGS [r10_855_TrROS] | < -4.18 kJ/mol |
| SAGGSAGGSAGGKRRKITIPFKMPDGRWHPIRANMSEEQLEDIVEHHPFFKPAIKKALKKSAGGSAGGSAGG [r7_637_TrROS] | < -4.18 kJ/mol |
| SAGGSAGGSAGGLKIPKGYPWKLSHNNGKEREFKFDSLDDIKEELNVPIPPGRNIQIEPYSAGGSAGGSAGG [r7_223_TrROS] | < -4.18 kJ/mol |
| SAGGSAGGSAGGMEDVKLLSKSYIPETNELEVTVEIPGGELVNIPLKPGVTDEDVLKLISAGGSAGGSAGGS [r10_984_JUSTAS] | < -4.18 kJ/mol |
| SAGGSAGGSAGGMELEVHYTPNGYHTAEIRDPNGKPVEIYFDSPEDAPKEAQKLAKELQSAGGSAGGSAGGS [r10_1066_TrROS] | < -4.18 kJ/mol |
| SAGGSAGGSAGGMITVKDPATGKWREVTPEELEEVLAANPGPITVEREGGRRTVPAALLSAGGSAGGSAGGS [r10_839_JUSTAS] | < -4.18 kJ/mol |
| SAGGSAGGSAGGMKVTVETFEGPDFEIVTERSPEGKVKVFTIKPNEVKEEVIPLENPELSAGGSAGGSAGGS [r10_1169_JUSTAS] | < -4.18 kJ/mol |
| SAGGSAGGSAGGMPELEKEGYKVEKFTIFEPDPLKPVGEVTVLTEVPKPKLLEGGSTSGLSAGGSAGGSAGG [r7_959_JUSTAS] | < -4.18 kJ/mol |
| SAGGSAGGSAGGMRDIAREFAEKNGDKNKPVRIKMPGGKKHNFTPDDIPDMPFDNWTIEPSAGGSAGGSAGG [r7_863_TrROS] | < -4.18 kJ/mol |
| SAGGSAGGSAGGMTKTYVTPVSPDVSEEEIKEKLAPEVSSVEVERDEESGTVTITTTLDSAGGSAGGSAGGS [r10_1007_JUSTAS] | < -4.18 kJ/mol |
| SAGGSAGGSAGGMVTIETPDEKYEITPTPEDRVLTKVYKKGKEIIKTKDPNSDKTEILDESAGGSAGGSAGG [r7_683_JUSTAS] | < -4.18 kJ/mol |

| Sequence | folding stability dG unfold |
| --- | --- |
| SAGGSAGGSAGGMVTNEVIEVDPANPEEVIAEIKAKGKAEAKKIEKLEGDKMKVYVKTSLSAGGSAGGSAGG [r7_589_JUSTAS] | < -4.18 kJ/mol |
| SAGGSAGGSAGGNIEIEVERNPENGYYTVEIKFNNPPIEIMVPRGMPKEQAKDWAKDLISAGGSAGGSAGGS [r10_192_TrROS] | < -4.18 kJ/mol |
| SAGGSAGGSAGGNTRYIPMPPDDIEELIEEAKDEGIDNVIIHNPENGRWIKITGDKIKPVSAGGSAGGSAGG [r7_564_TrROS] | < -4.18 kJ/mol |
| SAGGSAGGSAGGPDIKEAKPGLYPDKPVIYFKLPDREVVLFPGPKERFVKFGDKVLKIPSAGGSAGGSAGGS [r10_559_TrMRF] | < -4.18 kJ/mol |
| SAGGSAGGSAGGPDVEKYPFKFPGKKFKIQRNPDDPDSYMISFPPGKTETFPLDDIKPLSAGGSAGGSAGGS [r10_556_TrROS] | < -4.18 kJ/mol |
| SAGGSAGGSAGGPEGQWIDMDVEHNPKNNKLTIKFPDSGKPITIPANNIERVGDYIRINSAGGSAGGSAGGS [r10_942_TrROS] | < -4.18 kJ/mol |
| SAGGSAGGSAGGPKIQIPVDSPEDAVDEARDWMEQQFGIDPEDMPINVHVNEDDGWLYIRSAGGSAGGSAGG [r7_387_TrROS] | < -4.18 kJ/mol |
| SAGGSAGGSAGGPYLRIKWKHPENGKTREIEIPFEGKPLEEIADNIKKEHGMTVTDIEPVSAGGSAGGSAGG [r7_590_TrROS] | < -4.18 kJ/mol |
| SAGGSAGGSAGGSGSFDPENGTIEIRVPKTKKPVKIPFPEEEADEFAENLPPNLDRVHFSAGGSAGGSAGGS [r4_282_TrROS] | < -4.18 kJ/mol |
| SAGGSAGGSAGGSGVRLRFPADYPELVEKLAKAFGLKPKSFNPDTGEVDIGNEPGAKIVSAGGSAGGSAGGS [r4_3_TrMRF] | < -4.18 kJ/mol |
| SAGGSAGGSAGGSKLPPGAKVKIRFPNNNKEHEIKSPEQIKTFEIDGREMKIRKIEVEDSAGGSAGGSAGGS [r4_214_TrROS] | < -4.18 kJ/mol |
| SAGGSAGGSAGGSMKIIEVPGPPEEVIEKIKEENPNAKVLSVEEDPEGGVTFKIEIEEKSAGGSAGGSAGGS [r4_95_JUSTAS] | < -4.18 kJ/mol |
| SAGGSAGGSAGGSNIKELAKELWDKNPGPRPIRFKGNGYKIRFQMPPEGRLRPVEIEKNSAGGSAGGSAGGS [r4_438_TrROS] | < -4.18 kJ/mol |
| SAGGSAGGSAGGSPAFVAPSPDAYLSADPVTGEWEPVPADHVVLSVDPSNGRVTISDPLSAGGSAGGSAGGS [r4_127_TrMRF] | < -4.18 kJ/mol |
| SAGGSAGGSAGGSTKTIMLDSPEKVEELVEEAMEKGDPITIEYHDPGEGKPFEFKFPVKSAGGSAGGSAGGS [r4_188_TrROS] | < -4.18 kJ/mol |
| SAGGSAGGSAGGSTLEEIREMAKQGKKFKIRNPGNNQEHEIRPDDLDDFRGSPISIEPVSAGGSAGGSAGGS [r4_157_TrROS] | < -4.18 kJ/mol |
| SAGGSAGGSAGGSVIMVNSPEWAKEFAGAMMQEKSRKHGEPMTPDDVPVEIEVYDPEDWSAGGSAGGSAGGS [r4_498_TrROS] | < -4.18 kJ/mol |
| SAGGSAGGSAGGSVTVSLSELKKILKEKGNPGTVEEILEDPNVSVSKDPNSSNEIVTIPGSAGGSAGGSAGG [r7_180_JUSTAS] | < -4.18 kJ/mol |
| SAGGSAGGSAGGTAEEIRDIFEEHGMEVEVEVTPDNVTIQYEMPNGKKREFRIPADDLKSAGGSAGGSAGGS [r10_1029_TrROS] | < -4.18 kJ/mol |
| SAGGSAGGSAGGTDKVKEKLAPGRDITVLKIDPTDSVVNVTVKSPDSDVDTVVEVDPELISAGGSAGGSAGG [r7_303_JUSTAS] | < -4.18 kJ/mol |
